In the supplement of paper PMC12764529:
± gives the half width of the 95% confidence interval.

Assay: folding stability dG unfold from chymotrypsin proteolysis; higher = more stable
Outline: (§1)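 Designed mini-proteins with no cysteine and under 80 residues were kept only if AlphaFold2 dimer inter-PAE was above 15. In a PA-tagged cDNA display construct, they were digested with trypsin and chymotrypsin and then sequenced. K50 was inferred by Bayesian fitting of counts, and unfolding free energy was derived per protease or combined against a sequence-predicted unfolded-state K50 and a shared folded-state K50.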

Sequence | folding stability dG unfold [kcal/mol]
SAGGSAGGMIPVKTTETTTLPDGSTVVTESLTIIDPTSNTSTTTTLKTTIINTSTGTTIPPSSLSAGGSAGG [r6_866_JUSTAS] | 0.319 ± 0.073
SAGKKKKIKKIEIEIEKNKDGKEIKVKVKVDGKEYEFTFPKNMSLEELLKKLKEELEKEGLKIEEVEIKSAG [r5_305_TrROS_Hall] | 2.8 ± 0.13
SAGGSAGGKIKPGEKVKVKVKIKNKNGEVFEATATVVDGKIFIEVDGKIYEISADDIEEIEVEPSAGGSAGG [r6_132_TrROS_Hall] | 2.92 ± 0.099
SAGGSAGGSAGGKVEEVEKLAEELEKELGVDIGEVEVLDHPDKFRYRIRIPDLDLDLEFSAGGSAGGSAGGS [r10_161_TrMRF] | -0.0226 ± 0.17
SANKNFYIIQIKWEIDGPDGRTLSFMIIVPRDDPDEFLKEAKDFIAEEFGYPIKKIEVDIHRIPPEDFPSAG [r14_104_TrROS] | 3.16 ± 0.07
SAGGSAGGSMRFPPGQKIEIEEWKHNPNGGNYQVSIRFKDGKKKTFTSPEDIDRLIKAGHVKISAGGSAGGS [r12_455_TrROS] | 1.33 ± 0.19
SAVPLELPLSDEELRELLEKHSVDSTITLTLKVGDRWVRVTVTLKEVKREPNRLSVSVELTVTPLPPEESAG [r14_335_JUSTAS] | 4.08 ± 0.051
SDALKNIPFEIVEIDPPPPDRPIPAGGTVRITVYNPLTPGQPFTFDVRFIPGEGTLIAEIGGLPVEIPIGSA [r9_243_TrMRF] | 3.46 ± 0.082
SAGGSAGGSAGSVTLPKNQVGVSVESYEVTLPDETGESVTRYKITLRFAETGLSAEFYAGSAGGSAGGSAGG [r17_266_TrMRF] | 1.34 ± 0.25
SAGGSAGGSAGPKVVLVPVKVVQKLLGVKIPENSRVLVLLEKDKVKAVLVFPVLPSPENPSAGGSAGGSAGG [r11_616_TrMRF] | 1.55 ± 0.07
SAGGSAKKTIKITIEVDGKTIEITKITVNENGEVTIEVKITNKNGKETKTIKITMTVEELKALLKSSAGGSA [r15_56_TrROS_Hall] | 2.55 ± 0.081
SAGEVKIEVEGLPDKTVIRITIPYTAPGVGPSALLAVLKELGLPPETKLLKVEFYEEPKTVEALVVQGSAGG [r19_186_TrMRF] | 1.72 ± 0.16
SAGGSAGGSAMVVEIKPEKLPNGKYKVTVTITDPSTGKTTTTPYIVDPNKFTEEDIKKKLSSAGGSAGGSAG [r3_127_JUSTAS] | 1.5 ± 0.077
SAGGSMEIVKKETFTLEDGRKIEVVYDKETNKYVVKIYNKETGEEVEITVKSKEEAEEALKKLLEESAGGSA [r2_70_TrROS_Hall] | 3.76 ± 0.072
SAGEVKIEISVEKVGGKYIVRIKVTVDGKEYEYEFPAGKSVEELAKELEKKLNLKVKKIEVEVRKLPPKSAG [r5_181_TrROS_Hall] | 3.47 ± 0.12
SAGGSAGGSPGTLIEVRFPDRIVRIYQLPPGVYRVEVYEPPYLVATIELPNVTAEEAARLALGSAGGSAGGS [r20_8_TrMRF] | 3.071 ± 0.021

Assay: folding stability dG unfold (combined trypsin and chymotrypsin); higher = more stable
Outline: as §1

Sequence | folding stability dG unfold [kcal/mol]
SSPKILTESELKITIPMTDPETGKPINLEVTIPLLVDPATGTVEVLEIKITGPEEVQEILKKLIEKLIKESA [r9_619_JUSTAS] | 2.11 ± 0.22
SAGGSAGGSALDSLVPDIDLRVRVEPVPDDPSILRADVELSDGLVLEVEFLPSGVARVSLSGKGSAGGSAGG [r6_122_TrMRF] | -0.0927 ± 0.058
SAMSEKDMEPIETFELPETNVKIELYYNKKTKKYVIKIKNKKTKKTKTIVIKSKDGKITLEELKKLIKKSAG [r14_948_TrROS_Hall] | 3.61 ± 0.31
MYTIEVEVSTEPNPNTTTVTVRITSDDGTPVPEEVVKEAAEKIKKSGYPIDELEVKPLPDGSVEVTLKYSSS [r1_408_JUSTAS] | 3.76 ± 0.11
SAGGSSSTPVSSSTFTTPDGVTVSVTTTLEPDASGNPYTVTTETFPDGTVTTTTYRNGETQTTTVASAGGSA [r2_182_JUSTAS] | 1.34 ± 0.088
SAGGSAMKVIRIRPDDPRVKELLKKLEDAGYEVRYDEETGELYVTLPDGKVLKFKSLEELKKAGFESAGGSA [r15_94_TrROS_Hall] | 1.93 ± 0.088
SMILDVPGEQLDEALAEIRAAVAAGAPPVTIRMKLSPEDLKKAKAAFEALGMTVTPLPEPGVWEFTVELRSA [r9_600_JUSTAS] | 3.27 ± 0.065
SAGGKEYYLVKIEIEVTPENGKKETIEIELIVDGNPEEALKKAKEIAEYLEKKGFKVEIKKIEVYPASAGGS [r16_525_TrMRF] | 4.54 ± 0.15
SAMVYEFPFETEEEAREKAREVLLEKLGASPEEEKVELDIEIEIREDPETGKKLATVTVPKVTVSPKKSSAG [r14_467_JUSTAS] | 0.318 ± 0.086
SAGGSAGGSPKWKTIEITVLVPGMPAEEIAKNIANNFGIEITDIDVQLFPNGWVVVSATIRVKSAGGSAGGS [r12_359_TrROS] | 2.99 ± 0.096
AAPEGAVVTFDDKEITVAPDETLYLVNGKLYTKSEIPAVLKQLSPETEYTELTVAGDTGEVETETKHIYRPS [r1_304_JUSTAS] | 1.25 ± 0.14
SAGGSAMYEVTEEKDPNSDYTTVTITFPNGATVTITYNPKTNTITADVDPAVDPEVAAAAAKAVLSSAGGSA [r15_511_JUSTAS] | 2.23 ± 0.071
SAGGSAKPKRFVALIKLKGPEGKEIAEIPIVISPDKPEVDIDEIAREIAEKLGVEEIEAEIKEIEESAGGSA [r15_333_TrMRF] | 0.498 ± 0.28
SAGGEKEYVEVTLEIEIEIELEPGESAEEIARKLAEELGAEITEVRVERLPDGTVKITVTVRVKLPPSAGGS [r8_292_TrROS_Hall] | 2.98 ± 0.35
SAGGRIVEAAKEAGLDGVDLKEIRPLPDGGVEIRILPPPGMPEEAAAEAAERIERALREEFPDTRIDTESAG [r5_101_TrMRF] | -0.209 ± 0.31
SAGGSAGGMIPVKTTETTTLPDGSTVVTESLTIIDPTSNTSTTTTLKTTIINTSTGTTIPPSSLSAGGSAGG [r6_866_JUSTAS] | 1 ± 0.079

Sequence | folding stability dG unfold [kcal/mol]
SAGKKKKIKKIEIEIEKNKDGKEIKVKVKVDGKEYEFTFPKNMSLEELLKKLKEELEKEGLKIEEVEIKSAG [r5_305_TrROS_Hall] | 2.73 ± 0.18
SAGGSAGGKIKPGEKVKVKVKIKNKNGEVFEATATVVDGKIFIEVDGKIYEISADDIEEIEVEPSAGGSAGG [r6_132_TrROS_Hall] | 2.37 ± 0.22
SAGGSAGGSAGGKVEEVEKLAEELEKELGVDIGEVEVLDHPDKFRYRIRIPDLDLDLEFSAGGSAGGSAGGS [r10_161_TrMRF] | -0.103 ± 0.11
SANKNFYIIQIKWEIDGPDGRTLSFMIIVPRDDPDEFLKEAKDFIAEEFGYPIKKIEVDIHRIPPEDFPSAG [r14_104_TrROS] | 3.01 ± 0.17
SAGGSAGGSMRFPPGQKIEIEEWKHNPNGGNYQVSIRFKDGKKKTFTSPEDIDRLIKAGHVKISAGGSAGGS [r12_455_TrROS] | 0.822 ± 0.21
SAVPLELPLSDEELRELLEKHSVDSTITLTLKVGDRWVRVTVTLKEVKREPNRLSVSVELTVTPLPPEESAG [r14_335_JUSTAS] | 3.81 ± 0.13
SDALKNIPFEIVEIDPPPPDRPIPAGGTVRITVYNPLTPGQPFTFDVRFIPGEGTLIAEIGGLPVEIPIGSA [r9_243_TrMRF] | 2.94 ± 0.12
SAGGSAGGSAGSVTLPKNQVGVSVESYEVTLPDETGESVTRYKITLRFAETGLSAEFYAGSAGGSAGGSAGG [r17_266_TrMRF] | 1.26 ± 0.22
SAGGSAGGSAGPKVVLVPVKVVQKLLGVKIPENSRVLVLLEKDKVKAVLVFPVLPSPENPSAGGSAGGSAGG [r11_616_TrMRF] | 1.54 ± 0.17
SAGGSAKKTIKITIEVDGKTIEITKITVNENGEVTIEVKITNKNGKETKTIKITMTVEELKALLKSSAGGSA [r15_56_TrROS_Hall] | 2.18 ± 0.095
SAGEVKIEVEGLPDKTVIRITIPYTAPGVGPSALLAVLKELGLPPETKLLKVEFYEEPKTVEALVVQGSAGG [r19_186_TrMRF] | 1.63 ± 0.11
SAGGSAGGSAMVVEIKPEKLPNGKYKVTVTITDPSTGKTTTTPYIVDPNKFTEEDIKKKLSSAGGSAGGSAG [r3_127_JUSTAS] | 1.58 ± 0.098
SAGGSMEIVKKETFTLEDGRKIEVVYDKETNKYVVKIYNKETGEEVEITVKSKEEAEEALKKLLEESAGGSA [r2_70_TrROS_Hall] | 3.43 ± 0.37
SAGEVKIEISVEKVGGKYIVRIKVTVDGKEYEYEFPAGKSVEELAKELEKKLNLKVKKIEVEVRKLPPKSAG [r5_181_TrROS_Hall] | 3.28 ± 0.25
SAGGSAGGSPGTLIEVRFPDRIVRIYQLPPGVYRVEVYEPPYLVATIELPNVTAEEAARLALGSAGGSAGGS [r20_8_TrMRF] | 2.72 ± 0.054
